This assay deals with endogenous MDM2 of SH-SY5Y cells (human (endogenous in SH-SY5Y)) (UniProt Q00987). The experiment in a line: AlphaScreen or HTRF; AlphaLISA of extracts of SH-SY5Y cells (MG132), endogenous proteins; D1V2Z-CaptSure acceptor beads and biotinylated HT7 on donor beads; background from Tau-KO SH-SY5Y cells. On the technique in general: Alpha assays give light when donor and acceptor beads are brought close together.
Chain of endogenous MDM2 of SH-SY5Y cells (human (endogenous in SH-SY5Y)) (Q00987 whole entry): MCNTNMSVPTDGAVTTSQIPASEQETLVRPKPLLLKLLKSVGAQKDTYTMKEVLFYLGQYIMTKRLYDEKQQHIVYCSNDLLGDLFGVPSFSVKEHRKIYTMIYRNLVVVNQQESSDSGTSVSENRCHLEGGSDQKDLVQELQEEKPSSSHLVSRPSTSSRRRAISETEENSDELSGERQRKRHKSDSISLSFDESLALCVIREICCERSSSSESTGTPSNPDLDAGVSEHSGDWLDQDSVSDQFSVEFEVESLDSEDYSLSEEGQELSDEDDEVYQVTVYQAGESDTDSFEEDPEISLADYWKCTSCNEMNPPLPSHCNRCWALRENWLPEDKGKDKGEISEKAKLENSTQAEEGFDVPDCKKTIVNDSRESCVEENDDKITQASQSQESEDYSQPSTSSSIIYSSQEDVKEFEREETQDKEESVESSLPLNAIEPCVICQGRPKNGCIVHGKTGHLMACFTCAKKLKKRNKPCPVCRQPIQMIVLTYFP

Consider “endogenous Tau of SH-SY5Y cells (from UniProt P10636 1-758) (natural protein)”, for which the AlphaLISA signal, fold over background of Tau-KO SH-SY5Y cells came out at 2.7 fold.

The values are drawn from paper PMC10290082.
